Biological target: GOLD domain of human TMED1 (p24γ1), signal peptide-free (human) (UniProt Q13445)
Test: SEC

GOLD domain of human TMED1 (p24γ1), signal peptide-free (from UniProt Q13445 24-130) (domain or fragment)
stoichiometry N: 2

From doi:10.1101/2021.02.13.431076
